The record followed here is patent US20210395361A1 (Alector, published 2021).

Experiment [1] has as its target T1, human Siglec-14 (human, UniProt Q08ET2 17-396).
T1 construct: also called CHO-S14; CHO-S hSiglec-14
T1 sequence: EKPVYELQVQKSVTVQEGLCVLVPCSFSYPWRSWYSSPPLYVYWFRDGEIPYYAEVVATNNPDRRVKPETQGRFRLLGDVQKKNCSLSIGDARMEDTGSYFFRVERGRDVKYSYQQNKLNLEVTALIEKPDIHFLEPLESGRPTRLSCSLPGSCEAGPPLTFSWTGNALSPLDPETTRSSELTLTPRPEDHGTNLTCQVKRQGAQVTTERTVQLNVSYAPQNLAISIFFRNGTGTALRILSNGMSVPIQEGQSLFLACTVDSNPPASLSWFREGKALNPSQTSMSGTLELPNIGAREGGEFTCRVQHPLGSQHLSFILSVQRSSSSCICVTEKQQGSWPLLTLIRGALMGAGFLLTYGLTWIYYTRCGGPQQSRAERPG
Description: FACS titration, CHO-S hSiglec-14 cells, anti-human IgG secondary; y-axis Fold over isotype, x-axis Antibody (nM), log scale; the same flat line on CHO-S Parental cells. The method, then:
(§1) CHO cells were incubated with increasing concentrations of anti-Siglec-5 antibody, as indicated on the x-axis of each plot. The binding of anti-Siglec-5 antibodies to the surface of CHO cells was then measured by FACS. The y-axis provides the binding of each indicated anti-Siglec-5 antibody to the surface of CHO cells relative to hIgG1 isotype control antibodies. S5-174-H2L1 refers to antibody S5-174-H3; S5-174-H3L1 refers to antibody S5-174-H5; S5-174-H3L2 refers to antibody S5-174-H6; S5-174-H4L1 refers to antibody S5-174-H7; S5-174-H4L2 refers to antibody S5-174-H8; S5-G03-H2L1 refers to antibody S5-G-03-H4; S5-G03-H2L2 refers to antibody S5-G-03-H5; S5-G03-H3L1 refers to antibody S5-G-03-H7; S5-G03-H3L2 refers to antibody S5-G-03-H8; and S5-G03-H3L3 refers to antibody S5-G-03-H9.
(§2) Various anti-Siglec-5 antibodies of the present disclosure were evaluated for their ability to bind to CHO cells which were stably transfected with human Siglec-5 (CHO-S5) or human Siglec-14 (CHO-S14). Cells were incubated with various dilutions of anti-Siglec-5 antibodies for 30 minutes on ice in the dark, followed by a 30-minute incubation with a fluorescently conjugated anti-human IgG secondary antibody. Cells were then washed twice in FACS buffer (PBS+2% FBS, 2 mM EDTA), and flow cytometry was performed on a BD FACS Canto. Data were analyzed using FlowJo software (Ashland, Oreg.). In FIG. 9, hIgG1 refers to isotype control antibodies; S5-174-H2L1 refers to antibody S5-174-H3; S5-174-H3L1 refers to antibody S5-174-H5; S5-174-H3L2 refers to antibody S5-174-H6; S5-174-H4L1 refers to antibody S5-174-H7; S5-174-H4L2 refers to antibody S5-174-H8; S5-G03-H2L1 refers to antibody S5-G-03-H4; S5-G03-H2L2 refers to antibody S5-G-03-H5; S5-G03-H3L1 refers to antibody S5-G-03-H7; S5-G03-H3L2 refers to antibody S5-G-03-H8; and S5-G03-H3L3 refers to antibody S5-G-03-H9.

Experiment [2] addresses T2, human Siglec-5 (human, UniProt O15389 17-551).
T2 construct: also called CHO-S5; CHO-S hSiglec-5
T2 sequence: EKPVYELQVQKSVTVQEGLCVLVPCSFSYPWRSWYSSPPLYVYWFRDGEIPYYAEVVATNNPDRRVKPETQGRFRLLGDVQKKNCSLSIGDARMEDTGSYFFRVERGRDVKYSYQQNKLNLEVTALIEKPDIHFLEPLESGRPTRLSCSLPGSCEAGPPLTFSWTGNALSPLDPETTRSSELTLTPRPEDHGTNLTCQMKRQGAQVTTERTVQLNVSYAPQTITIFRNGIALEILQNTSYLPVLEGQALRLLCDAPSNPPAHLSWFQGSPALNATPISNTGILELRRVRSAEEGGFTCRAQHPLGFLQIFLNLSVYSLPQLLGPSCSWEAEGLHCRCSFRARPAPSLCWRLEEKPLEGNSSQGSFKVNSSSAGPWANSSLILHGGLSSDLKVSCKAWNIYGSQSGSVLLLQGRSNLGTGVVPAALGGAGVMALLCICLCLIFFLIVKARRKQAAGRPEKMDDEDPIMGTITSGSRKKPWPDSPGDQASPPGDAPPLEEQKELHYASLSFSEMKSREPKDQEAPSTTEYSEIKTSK
Description: FACS titration, CHO-S hSiglec-5 cells, anti-human IgG secondary; y-axis Fold over isotype, x-axis Antibody (nM), log scale. The method, then:
as §1, §2

Experiment [3] addresses T3, Histidine-tagged human Siglec-5 (NovoProtein) (human, UniProt O15389 17-434, limits assumed).
T3 construct: Bought soluble protein; also called His-tagged human Siglec-5; not shown: histidine tag
T3 sequence: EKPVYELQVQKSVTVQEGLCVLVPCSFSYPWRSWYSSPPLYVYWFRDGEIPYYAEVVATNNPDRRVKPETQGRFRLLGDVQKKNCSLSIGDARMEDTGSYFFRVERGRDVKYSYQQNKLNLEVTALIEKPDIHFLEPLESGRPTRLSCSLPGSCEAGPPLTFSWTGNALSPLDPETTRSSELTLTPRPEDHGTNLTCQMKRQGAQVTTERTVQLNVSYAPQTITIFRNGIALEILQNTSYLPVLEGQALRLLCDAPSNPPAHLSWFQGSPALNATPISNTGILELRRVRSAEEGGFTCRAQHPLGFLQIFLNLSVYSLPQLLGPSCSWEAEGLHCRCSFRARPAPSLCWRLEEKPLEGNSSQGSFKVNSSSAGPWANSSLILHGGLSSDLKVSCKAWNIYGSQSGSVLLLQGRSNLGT
Description: array SPR, antibody immobilized, His-tagged human Siglec-5 (0-500 nM) in solution; apparent affinity. The method, then:
The apparent binding affinities of the anti-Siglec-5 antibodies were measured by array surface plasmon resonance (SPR), according to standard techniques (Abdiche, et al. (2016) MAbs 8:264-277). Briefly, anti-Siglec-5 antibodies were immobilized on a HC 30M chip at four different densities, at antibody concentration of 10 μg/mL, 2.5 μg/mL, 0.63 μg/mL, and 0.16 μg/mL. Varying concentrations (0-500 nM) of Histidine-tagged human Siglec-5 or cynomolgus Siglec-5 (NovoProtein) were then bound to the captured anti-Siglec-5 surface (5 min injection time, 15 min dissociation time) in HBS-EP⁺/1 mg/mL BSA running buffer. Kinetic analysis was performed using Carterra software to extract association and dissociation rate constants (kₐ and kd, respectively) for each antibody. Apparent affinity constants (KD) were calculated from the ratio kd/kₐ. None of the anti-Siglec-5 antibodies bound to cynomolgus Siglec-5 protein.

B1: S5-G-03-H8 (antibody, V domains shown)
VH: EVQLLQSGGGLVQPGGSLRLSCAASGFTFSTYGMSWVRQAPGKGLELVATINSNGDNTYYADSVKGRFTISRDNSKNTLYLQMNSLRAEDTAVYYCARAWPSITTVFAPYTLDYWGQGTLVTVSS
VL: DIQMTQSPSSLSASVGDRVTITCRASSSVSSSFLHWYQQKPGKAPKLWIYSTSNLASGVPSRFSGSGSGTDYTLTISSLQPEDFATYYCQQYSGYPLTFGQGTKLEIK
notes: Humanized variant of S5-G-03; also called S5-G03-H3L2; SG-5-03-H8
As for B1, the binding result was “no binding (tested: last point between 1 and 10 nM)” in experiment [1]; “binds” in experiment [2].

B2: S5-174-H5 (antibody, V domains shown)
VH: QVQLVQSGAEVKKPGSSVKLSCKASGYTFTNYWMHWVRQAPGQGLEWVGEIDPSDGYVTYAQKFQGRATLTVDKSTSTAYMELSSLRSEDTAVYYCAGVYYGNSIYYAMDYWGQGTLVTVSS
VL: DIQMTQSPSSLSASVGDRVTITCRASQDVGTAVAWYQQKPGKAPKLLIYWTSTRHTGVPSRFSGSGSGTDFTLTISSLQPEDFATYYCQQYRSYPFTFGQGTKLEIK
notes: Humanized variant of S5-174; also called S5-174-H3L1
With B2, the binding result is “no binding (tested: last point between 1 and 10 nM)” in experiment [1]; “binds” in experiment [2].

B3: S5-174-H7 (antibody, V domains shown)
VH: QVQLVQSGAEVKKPGSSVKLSCKASGYTFTNYWMHWVRQAPGQGLEWVGEIDPSDGYVTYAQKFQGRATLTVDRSTSTAYMELSSLRSEDTAVYYCAGVYYGNSIYYAMDYWGQGTLVTVSS
VL: DIQMTQSPSSLSASVGDRVTITCRASQDVGTAVAWYQQKPGKAPKLLIYWTSTRHTGVPSRFSGSGSGTDFTLTISSLQPEDFATYYCQQYRSYPFTFGQGTKLEIK
notes: Humanized variant of S5-174; also called S5-174-H4L1
For B3, the binding result in experiment [1] was “no binding (tested: last point between 1 and 10 nM)”; in experiment [2], “binds”.

B4: S5-174-H8 (antibody, V domains shown)
VH: QVQLVQSGAEVKKPGSSVKLSCKASGYTFTNYWMHWVRQAPGQGLEWVGEIDPSDGYVTYAQKFQGRATLTVDRSTSTAYMELSSLRSEDTAVYYCAGVYYGNSIYYAMDYWGQGTLVTVSS
VL: DIQMTQSPSSLSTSVGDRVTITCRASQDVGTAVAWYQQKPGKAPKLLIYWTSTRHTGVPSRFSGSGSGTDFTLTISSVQPEDLATYYCQQYRSYPFTFGQGTKLEIK
notes: Humanized variant of S5-174; also called S5-174-H4L2
Consider B4, for which the binding result in experiment [1] is “no binding (tested: last point between 1 and 10 nM)”; in experiment [2], “binds”.

B5: S5-174-H6 (antibody, V domains shown)
VH: QVQLVQSGAEVKKPGSSVKLSCKASGYTFTNYWMHWVRQAPGQGLEWVGEIDPSDGYVTYAQKFQGRATLTVDKSTSTAYMELSSLRSEDTAVYYCAGVYYGNSIYYAMDYWGQGTLVTVSS
VL: DIQMTQSPSSLSTSVGDRVTITCRASQDVGTAVAWYQQKPGKAPKLLIYWTSTRHTGVPSRFSGSGSGTDFTLTISSVQPEDLATYYCQQYRSYPFTFGQGTKLEIK
notes: Humanized variant of S5-174; also called S5-174-H3L2
Take B5: the binding result is “no binding (tested: last point between 1 and 10 nM)” in experiment [1]; “binds” in experiment [2].

B6: S5-174-H3 (antibody, V domains shown)
VH: QVQLVQSGAEVKKPGSSVKVSCKASGYTFTNYWMHWVRQAPGQGLEWMGEIDPSDGYVTYAQKFQGRVTITVDKSTSTAYMELSSLRSEDTAVYYCAGVYYGNSIYYAMDYWGQGTLVTVSS
VL: DIQMTQSPSSLSASVGDRVTITCRASQDVGTAVAWYQQKPGKAPKLLIYWTSTRHTGVPSRFSGSGSGTDFTLTISSLQPEDFATYYCQQYRSYPFTFGQGTKLEIK
notes: Humanized variant of S5-174; also called S5-174-H2L1
For the molecule B6, the binding result in experiment [1] is “no binding (tested: last point between 1 and 10 nM)”; in experiment [2], “binds”.

B7: S5-G-03 (antibody, V domains shown)
VH: QAYLQQSGGGLVQPGQSLKLSCAASGFTFSTYGMSWVRQTPDKRLELVATINSNGDNTYYPDSVKGRFTISRDNANNTLYLQMSSLKSEDTAMYFCARAWPSITTVFAPYTLDYWGQGTSVTVSS
VL: DIVLTQSPAIMSASPGEKVTMTCRASSSVSSSFLHWYQQKSGASPKLWIYSTSNLASGVPTRFSGSGSGTSYSLSISSVEAEDTATYFCQQYSGYPLTFGGGTKLEIK
notes: Mouse-derived variable domains; expressed in mammalian cells as full antibody; hIgG1 isotype control; also called SG-5-03
What is called koff is the rate constant with which the complex falls apart. The kon is the second-order rate constant of association. On to B7, for which the binding result in experiment [1] is “no binding (tested: last point between 1 and 10 nM)”. Moreover, in experiment [3], the Kd worked out at 7.1 nM, the koff was 0.0001 s⁻¹ and the kon is 14000 M⁻¹ s⁻¹.
